According to US20210032351A1 (XDCEXPLORER SHANGHAI, published 2021):
Ends that are not written are not given here. * marks the point of attachment. Biotin = O=C1N[C@H]2[C@H](CS[C@H]2CCCCC(=O)*)N1

Tests used:
[1] = biological target: human EGFRvIII protein, full length, on transfected cells (human) (UniProt P00533); assay: FACS, U87MG-hEGFRvIII 2G2 cells
[2] = biological target: human EGFRvIII protein, full length, on transfected cells (human) (UniProt P00533); assay: FACS, U87MG-hEGFRvIII 2C3 cells
[3] = biological target: human EGFRvIII protein, full length, on transfected cells (human) (UniProt P00533); assay: FACS, U87MG-hEGFRvIII 1D1 cells
[4] = biological target: human EGFRvIII protein, full length, on transfected cells (human) (UniProt P00533); assay: FACS, U87MG-hEGFRvIII 1F9 cells
[5] = biological target: human EGFRvIII protein, full length, on transfected cells (human) (UniProt P00533); assay: FACS, 293F-hEGFRvIII 1F3 cells
[6] = biological target: human EGFRvIII protein, full length, on transfected cells (human) (UniProt P00533); assay: FACS, CHO-K1-hEGFRvIII 1E10 cells
[7] = biological target: human EGFRvIII protein, full length, on transfected cells (human) (UniProt P00533); assay: FACS, CHO-K1-hEGFRvIII 1D9 cells
[8] = biological target: human EGFRvIII protein, full length, on transfected cells (human) (UniProt P00533); assay: FACS, U87MG-hEGFRvIII 2C6 cells
[9] = biological target: human EGFRvIII protein, full length, on transfected cells (human) (UniProt P00533); assay: FACS, CHO-K1-hEGFRvIII 2B3 cells
[10] = biological target: human EGFRvIII protein, full length, on transfected cells (human) (UniProt P00533); assay: FACS, 293F-hEGFRvIII 1D11 cells
[11] = biological target: human EGFRvIII protein, full length, on transfected cells (human) (UniProt P00533); assay: FACS, CHO-K1-hEGFRvIII 1G10 cells
[12] = biological target: human EGFRvIII protein, full length, on transfected cells (human) (UniProt P00533); assay: FACS, CHO-K1-hEGFRvIII 1E3 cells
[13] = biological target: human EGFRvIII protein, full length, on transfected cells (human) (UniProt P00533); assay: FACS, CHO-K1-hEGFRvIII 2D11 cells
[14] = biological target: human EGFRvIII protein, full length, on transfected cells (human) (UniProt P00533); assay: FACS, 293F-hEGFRvIII 1C10 cells
[15] = biological target: human EGFRvIII protein, full length, on transfected cells (human) (UniProt P00533); assay: FACS, U87MG-hEGFRvIII 1B3 cells
[16] = biological target: wild-type EGFR protein on the surfaces of A431 tumor cells and normal human primary hepatocytes (human) (UniProt P00533); assay: FACS, normal human primary hepatocytes
[17] = biological target: wild-type EGFR protein on the surfaces of A431 tumor cells and normal human primary hepatocytes (human) (UniProt P00533); assay: FACS, A431 tumor cells
[18] = biological target: T1, human EGFRvIII-hFc protein (human, UniProt P00533 25-645); assay: ELISA, coated EGFRvIII-hFc, antibody 0.1 nM
T1 construct: extracellular domain; made in HEK293 cells, purified on protein A; also called immunogen A; hFc-tagged EGFRvIII protein; not shown: human IgG Fc fragment (hFc) of the pCpC vector
In short: (§1)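 Coat: EGFRvIII-hFc 1.0 μg/mL, 4° C o/n. Block: 1% BSA/PBS-Tween, 2 h RT. Ab 2 h 37° C; HRP 2° Ab 2 h 37° C. TMB 30 min, HCl stop, A450.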

[19] = biological target: T1, human EGFRvIII-hFc protein; assay: ELISA, coated EGFRvIII-hFc, antibody 0.001 nM
In short: as §1

[20] = biological target: T1, human EGFRvIII-hFc protein; assay: ELISA, plate coated with human EGFRvIII-hFc, HRP secondary antibody, absorbance at 450 nm
Procedure: The purified immunogen A (EGFRvIII-hFc) obtained in example 1 (for the preparation method, see step (I) in example 1) is diluted with PBS to a final concentration of 1.0 μg/mL, and then added to a 96-well ELISA plate at 100 μl/well. The plate is sealed with a plastic film and incubated at 4° C. overnight. The next day, the plate is washed twice with a plate washing solution [PBS+0.01% (v/v) Tween20], and added with a blocking solution [PBS+0.01% (v/v) Tween20+1% (w/w) BSA] for blocking 2 hours at room temperature. The blocking solution is discarded, and the purified EGFRvIII antibody obtained in example 2 is added at 100 μl/well. The plate is incubated for 2 hours at 37° C., and then washed 3 times with the plate washing solution [PBS+0.01% (v/v) Tween20]. The plate is added with an HRP (horseradish peroxidase) labeled secondary antibody (purchased from Sigma), incubated at 37° C. for 2 hours, and then washed 3 times with the plate washing solution [PBS+0.01% (v/v) Tween20]. The plate is added with 100 μl of TMB substrate/well, incubated for 30 minutes at room temperature, and then added with 100 μl of stopping solution (1.0N HCl)/well. A450 nm value is read using an ELISA plate reader (SpectraMax 384plus, purchased from Molecular Device), and the results are shown in FIG. 6 and table 10.

[21] = biological target: T1, human EGFRvIII-hFc protein; assay: ELISA, coated EGFRvIII-hFc, antibody 0.01 nM
In short: as §1

[22] = biological target: T1, human EGFRvIII-hFc protein; assay: ELISA, coated EGFRvIII-hFc, antibody 0.0001 nM
In short: as §1

[23] = biological target: T1, human EGFRvIII-hFc protein; assay: ELISA, coated EGFRvIII-hFc, antibody 1 nM
In short: as §1

[24] = biological target: T1, human EGFRvIII-hFc protein; assay: ELISA, coated EGFRvIII-hFc, antibody 10 nM
In short: as §1

[25] = biological target: T1, human EGFRvIII-hFc protein; assay: ELISA, coated EGFRvIII-hFc, antibody 100 nM
In short: as §1

[26] = biological target: T2, human EGFRvIII protein, full length, on transfected cells (human, UniProt P00533 25-1210); assay: FACS on CHOK-EGFRvIII cells
T2 construct: whole, on cells; stably transfected CHO-K1, U87MG and HEK293(F) cells; also called hEGFRvIII; mutant EGFRvIII protein

pep11 = biological target: T3, pep11 (cysteine pairing not given here); assay: peptide dot matrix ELISA
T3 peptide: TDHGSCVRACGADSYEK(Biotin)

pep31 = biological target: T4, pep31 (cysteine pairing not given here); assay: peptide dot matrix ELISA
T4 peptide: GVRKCKKCEGPCRKVCK(Biotin)

pep17 = biological target: T5, pep17; assay: peptide dot matrix ELISA
T5 peptide: VRACGADSYEMEEDGVK(Biotin)

pep34 = biological target: T6, pep34 (cysteine pairing not given here); assay: peptide dot matrix ELISA
T6 peptide: KCKKCEGPCRKVCNGIK(Biotin)

pep35 = biological target: T7, pep35 (cysteine pairing not given here); assay: peptide dot matrix ELISA
T7 peptide: CKKCEGPCRKVCNGIGK(Biotin)

pep23 = biological target: T8, pep23 (cysteine pairing not given here); assay: peptide dot matrix ELISA
T8 peptide: DSYEMEEDGVRKCKKCK(Biotin)

pep16 = biological target: T9, pep16 (cysteine pairing not given here); assay: peptide dot matrix ELISA
T9 peptide: CVRACGADSYEMEEDGK(Biotin)

pep18 = biological target: T10, pep18; assay: peptide dot matrix ELISA
T10 peptide: RACGADSYEMEEDGVRK(Biotin)

pep33 = biological target: T11, pep33 (cysteine pairing not given here); assay: peptide dot matrix ELISA
T11 peptide: RKCKKCEGPCRKVCNGK(Biotin)

pep28 = biological target: T12, pep28 (cysteine pairing not given here); assay: peptide dot matrix ELISA
T12 peptide: EEDGVRKCKKCEGPCRK(Biotin)

pep02 = biological target: T13, pep02; assay: peptide dot matrix ELISA
T13 peptide: EEKKGNYVVTDHGSCVK(Biotin)

pep24 = biological target: T14, pep24 (cysteine pairing not given here); assay: peptide dot matrix ELISA
T14 peptide: SYEMEEDGVRKCKKCEK(Biotin)

pep32 = biological target: T15, pep32 (cysteine pairing not given here); assay: peptide dot matrix ELISA
T15 peptide: VRKCKKCEGPCRKVCNK(Biotin)

pep08 = biological target: T16, pep08 (cysteine pairing not given here); assay: peptide dot matrix ELISA
T16 peptide: YVVTDHGSCVRACGADK(Biotin)

“known EGFRvIII antibody (purchased from Absoluteantibody, #Ab00184-1.1)” gave a cell mean fluorescence intensity [1] of 182, a cell mean fluorescence intensity [2] of 82.7 and a cell mean fluorescence intensity [3] of 96.4. The cell mean fluorescence intensity [4] was 68, the cell mean fluorescence intensity [5] was 395 and the cell mean fluorescence intensity [6] was 92. It also gave a cell mean fluorescence intensity [7] of 457, a cell mean fluorescence intensity [8] of 178 and a cell mean fluorescence intensity [9] of 109. For the same molecule, the cell mean fluorescence intensity [10] was 388, the cell mean fluorescence intensity [11] was 563 and the cell mean fluorescence intensity [12] was 42. For the same molecule, the cell mean fluorescence intensity [13] was 77, the cell mean fluorescence intensity [14] was 458 and the cell mean fluorescence intensity [15] was 66.9.

Molecule Negative control hIgG (antibody) has a mean fluorescence intensity (MFI) [16] of 219 MFI and a mean fluorescence intensity (MFI) [17] of 388 MFI.

B1: Murine anti-43H6 (antibody, V domains shown)
VH: INAEYAGGPGLVKPSQSLSLTCTVTDYSITSDYAWNWIRQFPGNKLEWMGYISYSGNTNYNPSLKSRISITRDTSKNQFFLQLNSVTTEDTATYYCARLGRGFAYWGQGTLVTVSA
VL: DILMTQSPSSMSVSLGDTVSITCHASQDINSNIGWLQQKPGTSFKGLIYHGRNLEDGVPSRFSGSGSGEDYSLTISSLESEDFADYYCVQYAHFPPTFGAGTKLELK
notes: murine hybridoma antibody; also called 43H6A1
For B1, the OD450 nm [18] was 1.39, the OD450 nm [19] was 0.11 and the “EC50 (read off the curve)” value [20] was ~0.02 nM. The OD450 nm [21] was 0.25, the OD450 nm [22] was 0.09 and the OD450 nm [23] was 3.86. The OD450 nm [24] was 3.87 and the OD450 nm [25] was 3.85.

B2: c75G7C6-4 (antibody, human IgG1, V domains shown)
VH: EVQLQQSGPELVKPGASVKIPCKASGYTFTDYNMDWVKQSHGKSLEWIGDINPNNGDTIYNQKFKGKATLTVDKSSSTAYMELRSLTSEDTAVYYCARGDYSGYYPVYYAMDYWGQGTSVTVSS
VL: ENVLTQSPAIMSASPGEKVTMTCRASSSVSSSYLHWYQQKSGASPKLWIFSTSNLAAGVPARFSGSGSGTSYSLTVSSVEAEDAATYYCQQYSGYPLTFGAGTKLELK
notes: chimeric, human IgG1 / kappa; DG of heavy chain CDR3 mutated to SG; also called DG/SG mutant
B2 was tested, and the “fold decrease in binding ability compared to the wild-type chimeric antibody c75G7C6” value [26] was 2.5 fold.

B3: Chimeric antibody 75G7 (antibody, V domains shown)
VH: EVQLQQSGPELVKPGASVKIPCKASGYTFTDYNMDWVKQSHGKSLEWIGDINPNNGDTIYNQKFKGKATLTVDKSSSTAYMELRSLTSEDTAVYYCARGDYDGYYPVYYAMDYWGQGTSVTVSS
VL: ENVLTQSPAIMSASPGEKVTMTCRASSSVSSSYLHWYQQKSGASPKLWIFSTSNLAAGVPARFSGSGSGTSYSLTVSSVEAEDAATYYCQQYSGYPLTFGAGTKLELK
notes: also called c75G7C6
For B3, the ELISA signal (pep11) was 0.08, the ELISA signal (pep31) was 0.06 and the ELISA signal (pep17) was 0.05. The ELISA signal (pep34) was 0.06, the ELISA signal (pep35) was 0.07 and the ELISA signal (pep23) was 0.05. The ELISA signal (pep16) was 0.05, the ELISA signal (pep18) was 0.05 and the ELISA signal (pep33) was 0.07. For the same molecule, the ELISA signal (pep28) was 0.06, the ELISA signal (pep02) was 0.05 and the ELISA signal (pep24) was 0.05. The ELISA signal (pep32) was 0.06 and the ELISA signal (pep08) was 0.05.
